Numbering of substitutions follows the chain as printed.
B1: VG9B380 (antibody, human IgG1, lambda, V domains shown)
VH: QVQLQESGPGLVKPSETLSLTCTVSGGSISNYYWSWIRQPAGKGLEWIGRIYPSGITSYDPSLKSRVTMSLDTSKNQFSLKLTSVTAADTAVYYCAGIMGTKGAFDIWGQGTMVTVSS
VL: QSALTQPASVSGSPGQSITISCTGTSSDVGGYNYVSWYQQHPGKAPKLLIYEVSNRPSGVSNRFSGSKSGSTASLTISGLQAEDEADYYCSSYTSTSVVFGGGTKLTVLG
B2: VG9B103 (antibody, human IgG1, kappa, V domains shown)
VH: EVQLVQSGAEVKKPGSSVKVSCKTSGGTFSSYAISWVRQAPGQGLEWMGGIIPIFGTATYAQKFQDRVTITADKSTSTAYMELSSLRSEDTAVFYCARGVGWGTDYYYGLDVWGQGTTVTVSS
VL: ETTLTQSPLSSPVTLGQPASISCRSSQGLVHSDGNTYLSWLQQRPGQSPRLLIYKISNRFSGVPDRFSGSGAGTDFTLKISRVEAEDVGVYYCMQATHHPLTFGGGTKVEIKR
B3: VG9B372 (antibody, human IgG1, kappa, V domains shown)
VH: QVQLQESGPGLVKPSQTLSLTCTVSGGSISNGGFYWSWIRQHPGKGLEWLGYINYSGSTYYNPSLESRGTISLDTSKNQFSLKLRSVTAADTAVYYCARDRNYEWNFDLWGRGTLVTVSS
VL: EIVMTQSPATLSLSPGEGATLSCRASQSVSSYLAWYQQKPGQAPRLLVYDASNRATGIPARFSGSGSGTAFTLTITSLEPEDFVVYYCQQRSNWPLTFGGGTKLEIKR
B4: VG9B87 (antibody, human IgG1, kappa, V domains shown)
VH: QVQLVESGAEVKKPGASVKVSCKASGYTFTSEYIHWVRQAPGQGLEWMGIINPSGGSTSYAQRFQGRVTMTRDTSTSTVYMEVNSLRSEDTAVYYCARERGYSYGSFDYWGQGTLVTVSS
VL: EIVLTQSPSFLSASAGDRVTITCRASQGISSYLAWYQQKPEKAPKLLIYAASTLQSGVPSRFSGSGSGTEFTLTISSLQPEDFATYYCQQFNSYSLTFGGGTKLEIKR
B5: VG9B208 (antibody, human IgG1, lambda, V domains shown)
VH: QVQLQESGPGLVKPSETLSLTCTVSGGSISGYYWSWIRQPPGKGLELIGYIFYSGSINYNPSLKNRVTISLDTSKNQFSLKLTSVTAADTAVYYCARVGKWELRSSFDIWGQGTMVTVSS
VL: QSVLTQPPSVSAAPGQKVTISCSGSTSNIGNNDVSWYQQLPGTAPKLLIYDNNKRPSGIPDRFSGSKSGTSATLGITGLQTGDEADYYCGTWDSSLSVWVFGGGTKLTVLG
B6: VG9B203 (antibody, human IgG1, lambda, V domains shown)
VH: QVQLVQSGPGLVKPSETLSLTCTVSGDSIGHYYWNWIRQPAGKGLEWIGRIYTSGSTNYNPSLKSRVTMSVDTSKNQFSLKLSSVTAADTAVYYCARSGGNFYWYFDLWGRGTLVTVSS
VL: B5 VL with T26S, D33Y, L40V, F63I, V98A, W99G, L107V
B7: VG9B163 (antibody, human IgG1, lambda, V domains shown)
VH: QVQLVQSGGGLVKPGASLKLSCAASGFTFSNHGMSWVRQTSDKRLEWVASITRGGDTTYYPDNVKGRFTISRENAKNTLYLQMSSLKSDDTALYYCTRGPLTVGYAMDYWGQGTTVTVSS
VL: QLVLTQPPSVSAAPGQKVTISCSGNSSNIGHNYVSWYQQLPGTAPKLLIYDNNQRPSGIPDRFSGSKSDTSATLGITGLQTGDEADYYCGIWDSSLSIVVFGGGTKVTVLG
B8: VG9B114 (antibody, human IgG1, kappa, V domains shown)
VH: EVQLVESGGDLVQPGGSLRLSCAASGFTFSRYDMHWVRQATGKGLEWVSAIGSAGDTYYPGSVKGRFTISRENAKNSLYLQMNSLRAGDTAVYYCARGKWELRDAFDIWGQGTMVTVSS
VL: DIVMTQSPSFLSASVGDRVTITCRASQGIHSYLAWYQQKPGKAPKLLIYVASTLQSGVPSRFSGSRSGTEFTLTISSLQPEDFATYYCQQLNSYPYTFGQGTKLEIKR
B9: VG9B81 (antibody, human IgG1, kappa, V domains shown)
VH: QVQLQESGPGLVKPSETLSLTCSVSGGSINTYYWSWFRQPAGKGLELIGRIYTSDNTNYNPSLKSRVTMSVDTSKNQFSLKLSSVTAADTAVYYCARYNWNYWYFDLWGRGTLVTVSS
VL: B8 VL with V3Q, G16R, T20N, H30S, V50T, R66G, Q90H, L104V
B10: VG9B147 (antibody, human IgG1, lambda, V domains shown)
VH: QVQLQESGPGLVNPSETLSLTCTVSGGSISGYFWNWIRQPPGKGLEWIGYIFYSGSTNYNPSLKSRVTISVDTSKNQFSLKLSSVTAADTAIYYCAREGKWELRSTFDIWGQGTMVTVSS
VL: SSELTQDPAVSVALGQTVRITCQGDSLRSYYATWYQQKPGQAPILVIYGENNRPSGIPDRFSGSRSGNTASLTITGAQAEDEADYYCNSRDTGDHHLVFGGGTKLTVLG
B11: VG9B177 (antibody, human IgG1, lambda, V domains shown)
VH: QVQLQESGPGLVKPSETLSLTCTVSGGSINNYFWSWIRQPPGKGLEWIGYIFYSGSTNYNPSLKSRVTISIDTSKNQFSLKVNSVTAADTAVYYCARVGKWELRTAFDIWGQGTMVTVSS
VL: QSALTQPASVSGSPGQSITISCTGTSSDVADYNYVSWYQQHPGKAPKLMIYEVSNRPSGVSNRFSGSKSGNTASLTISGLQAEDEADYYCCSYTSSFTVVFGGGTKVTVLG
B12: VG9B47 (antibody, human IgG1, kappa, V domains shown)
VH: QVQLVQSGAEVKKPGSSVKVSCKASGGSFSNYAISWMRQAPGQGLEWMGGIIPFFGTPDYAQKFQGRVTITADKSTSTAYMELSSLRSEDTAVYYCSTGGGYGDYDYYYGINVWGQGTMVTVSS
VL: DIVMTQSPLSSPVDLGQPASISCRSSQSLVHSDGNTYLSWLQQRPGQPPRLLIYKISNRFSGVPDRFSGSGAGTDFTLKISRVEAEDVGVYYCMQAKEFPLTLGGGTKVDIKR
B13: VG9B77 (antibody, human IgG1, kappa, V domains shown)
VH: EVQLVESGAEVMKPGSSVKVSCKASGGTFSSYAISWVRQAPEQGLEWMGGIIPFFGTADYAQKFQGRVTITADKSTNTAYMELTSLRSEDTAVYYCATATVTTDYYYGMDVWGQGTMVTVSS
VL: B12 VL with D1E, S10F, D14T, K55E, S61T, K97R, E98Q, L103F, D110E
B14: VG9B96 (antibody, human IgG1, kappa, V domains shown)
VH: EVQLVQSGAEVKKPGSSVKVSCKASGGTFSNYAISWVRLAPGQGLEWMGGIIPIFSAGTYAQRFQGRVTITADKSTSTAYMELNSLRSEDTAVYYCSSNSGTYYDYYYGMDVWGQGTMVTVSS
VL: B12 VL with P12H, D14T, S57F, F60L, E98Q, L103F, D110E
B15: VG9B379 (antibody, human IgG1, lambda, V domains shown)
VH: EVQLVQSGPEVKKPGASVKVSCKASGYTFTGDYIHWVRQVPGQGLEWMGWINPNSGGTNYAQKFQGRVTMTRDTSISTAFMELSRLRSDDTAVYYCAREGGVAPAAPDAFDIWGQGTMVTVSS
VL: B10 VL with T33R, I44V, L45V, E50K, R65S, T92S, G93S, D94G, H95N, L97R
B16: VG9B387 (antibody, human IgG1, lambda, V domains shown)
VH: EVQLVESGAEVKKPGASVKVSCKASGFTFTGYYLQWVRQAPGQGLEWMGWINPNSGYTDYAQRFQDRVTMTRDTSINTAYMELSRLRSDDTAVYYCARLDDAFDVWGQGTMVTVSS
VL: SYELTQDPAVSVALGQTVRITCQGDSLRNYYAIWYQQKPGQAPVLVIFGKNNRPSGIPDRFSGSSSGTTASLTITGTQAEDEADYYCNSRDSSGNHWVFGGGTKLTVLG
B17: VG9B392 (antibody, human IgG1, lambda, V domains shown)
VH: QVQLVQSGAEVKRPGASAKVSCKTSGYTFTGYYIHWVRQAPGQGLEWMGWINPNSGYTNSAQKFQGRVSMTRDTSISTVYMELSRLRSDDTAVYYCAREDDAFDIWGQGTLVTVSS
VL: B16 VL with Y2S, N29S, I33R, F48Y, T68D, T77A, Q78L, S92N, W97V, L105V

biological target: Vg9/Vd1 T cell receptor expressed on SKW3 cells (UniProt Q99603); assay: flow cytometry, dose-response binding at 37 C, SKW3 cells expressing Vg9/Vd1
Sequence (Q99603 21-122): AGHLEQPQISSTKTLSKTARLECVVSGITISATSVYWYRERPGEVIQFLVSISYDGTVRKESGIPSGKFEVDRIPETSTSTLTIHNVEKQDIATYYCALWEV

Binder | Max. Activity (fold over background)
B1 | 11.6
B2 | 1.79
B3 | 1.02
B4 | 1.4
B5 | 2.15
B6 | 1.3
B7 | 10.6
B8 | 8.38
B9 | 1.17
B10 | 1.59
B11 | 1.28

biological target: Vg5/Vd2 TCR on SKW3 cells (UniProt A0JD36); assay: flow cytometry DRC binding 37 C, SKW3 cells expressing Vg5/Vd2
Sequence (A0JD36 20-115): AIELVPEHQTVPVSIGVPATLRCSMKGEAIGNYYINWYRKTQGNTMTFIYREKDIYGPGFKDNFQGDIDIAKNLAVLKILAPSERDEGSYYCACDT

Binder | Max. Activity (fold over background)
B12 | 212
B13 | 148
B14 | 224
B15 | 260
B16 | 261
B17 | 281

biological target: Vg9/Vd2 TCR on SKW3_4 cells (UniProt Q99603); assay: flow cytometry DRC binding 37 C, SKW3_4 cells expressing Vg9/Vd2
Sequence (Q99603 21-122, chain 1 of 2): as the sequence (Q99603 21-122) above
Sequence (A0JD36 20-115, chain 2 of 2, further chain): as the sequence (A0JD36 20-115) above

Binder | Max. Activity (fold over background)
B12 | 162
B13 | 102
B14 | 126
B15 | 160
B16 | 201
B17 | 154

biological target: Vg9/Vd1 TCR on SKW3 cells (UniProt Q99603); assay: flow cytometry DRC binding 37 C, SKW3 cells expressing Vg9/Vd1
Sequence (Q99603 21-122): as the sequence (Q99603 21-122) above

Binder | Max. Activity (fold over background)
B12 | 308
B13 | 137
B14 | 245
B15 | 295
B16 | 435
B17 | 295

biological target: Vg5/Vd2 T cell receptor expressed on SKW3 cells (UniProt A0JD36); assay: flow cytometry, dose-response binding at 37 C, SKW3 cells expressing Vg5/Vd2
Sequence (A0JD36 20-115): as the sequence (A0JD36 20-115) above

Binder | Max. Activity (fold over background)
B1 | 233
B2 | 237
B3 | 171
B4 | 51.6
B5 | 203
B6 | 194
B7 | 48.9
B8 | 226
B9 | 77
B10 | 69.8
B11 | 193

biological target: Vg9/Vd2 T cell receptor expressed on SKW3_4 cells (UniProt Q99603); assay: flow cytometry, dose-response binding at 37 C, SKW3_4 cells expressing Vg9/Vd2
Sequence (Q99603 21-122, chain 1 of 2): as the sequence (Q99603 21-122) above
Sequence (A0JD36 20-115, chain 2 of 2, further chain): as the sequence (A0JD36 20-115) above

Binder | Max. Activity (fold over background)
B1 | 164
B2 | 96.4
B3 | 127
B4 | 139
B5 | 177
B6 | 143
B7 | 57.2
B8 | 176
B9 | 42.2
B10 | 30.5
B11 | 161
